In the assay the target is GST–BIR3 fusion protein (XIAP BIR3 domain). Put plainly: FMAT bead-based fluorescence competition assay.

Ends that are not written are not given here.

One may read the IC50 as the point on the concentration scale where inhibition reaches its midpoint. AVPIAQK-NH2 [Smac 7-mer peptide AVPIAQK (compound 1)]: the IC50 was 390 nM.

Consider AIPF-NH2 [AIPF (compound 16)], for which the 50% inhibitory concentration (IC50) was determined as 80 nM.

For the molecule ATPF-NH2 [ATPF (compound 17)], the IC50 is 200 nM.

The molecule ALPF-NH2 [ALPF (compound 15)] registered an IC50 of 180 nM.

Turning to SVPF-NH2 [SVPF (compound 10)], the concentration for half-maximal inhibition (IC50) stood at 1000 nM.

AIAY-NH2 [Grim 4-mer peptide AIAY (compound 8)] had a concentration for half-maximal inhibition (IC50) of 340 nM.

In the case of AVPIAQ-NH2 [Smac 6-mer peptide AVPIAQ (compound 2)], the IC50 turned out to be 270 nM.

As for AVPIA-NH2 [Smac 5-mer peptide AVPIA (compound 3)], the IC50 was determined as 300 nM.

The record behind these values is publication PMC2710984.
